Results from patent US20200206304A1, “METHODS AND COMPOSITIONS FOR EFFICIENT DELIVERY THROUGH MULTIPLE BIO BARRIERS” (Cedars-Sinai Medical Center, priority 2017, published 2020).
Like-named read-outs stand apart in the source and are kept apart here. Square brackets hold non-standard residues; d marks the D form. Ends that are not written are not given here.

Experiments:
[1] = Zeta potential measurements (Zetasizer Nano ZS90); type: physicochemical; details: in PBS; voltage 150 mV
Procedure: Zeta Potential Measurements: Synthesized conjugates were characterized with respect to their ζ potential using a Zetasizer Nano ZS90 (Malvern Instruments, Malvern, UK). Ten microliter aliquots of nanoconjugate samples were diluted in 0.99 mL PBS, and the voltage applied was 150 mV. Data represent the mean of three measurements±their standard deviation.

amyloid β (Aβ) plaques = amyloid β (Aβ) plaques (UniProt P05067); test: in vivo labelling of Aβ plaques after i.v. injection of rhodamine-labelled conjugate into APPswe/PS1ΔE9 AD mice, dose 8X; fluorescence microscopy of brain sections
Sequence of amyloid β (Aβ) plaques (P05067 672-713): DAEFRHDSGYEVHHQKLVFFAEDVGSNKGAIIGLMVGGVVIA

Aβ plaque = biological target: T1, Aβ plaque (Homo sapiens, UniProt P05067); test: Percentage of total plaques labeled by mini nanodrugs in AD mice; type: in vivo,  (B6.Cg-Tg (APPswe/PS1ΔE9) 85Dbo/J hemizygous) mice
T1 construct: tissue Jackson Laboratories; host or cells: brain of 6-8 month old APPswe/PS1ΔE9 transgenic mice, plaques labelled in vivo after iv injection and counterstained on sections
T1 sequence (P05067 672-713 limits assumed): as the sequence (P05067 672-713) above
Procedure: Slides were air dries and fixed using freshly diluted 2% PFA for 5 minutes. The PFA was washed 3 timed with PBS, and brains were covered with 70% EtOH for 5 minutes before washing with dH2O for 2 minutes. 1× Amylo-Glo (Biosenses, #TR-300-AG 100×, diluted with PBS) was then added for 10 minutes. The slides were then washed with PBS (5 minutes) and dH2O (15 seconds) and mounted (Fluoromount-G, No DAPI, Invitrogen), and stored at 4° C. prior to imaging.
Brains were collected and preserved in OTC for immunostaining.

Brain (other hemisphere) = details: 2 h, PBS background subtracted
[2] = system: blood-brain barrier (BBB); details: transgenic mice vs normal mice, doses 2×-8×
Procedure: AD-Mouse models: 6-8 month old […] (B6.Cg-Tg (APPswe/PS1ΔE9) 85Dbo/J hemizygous) mice were obtained from Jackson Laboratories. Mouse maintenance and experimental procedures followed the guidelines established by the Cedars Sinai Institutional Animal Care and Use Committee (IACUC Protocol #7416). Three to four mice of each sex were used for each experiment. Nanoconjugates were dissolved freshly in PBS (pH 7.4) prior to each experiment and injected intravenously (i.v.) into the lateral tail vein. […] Mice were anesthetized with isoflurane beforehand and their tails were briefly warmed to facilitate injections. The drug injection volume was kept constant at 150 μL. After each injection, mice were promptly returned to their cages. Brains were collected and preserved in OTC for immunostaining.
The brains were harvested and a 14 μm thick slices which were fixed and stained with DAPI to envision the nuclei
A comparison with normal brain was beneficial for understanding of the development of Alzheimer's disease.

glioblastoma GL261 = details: mouse, in vivo
neurons and astroglia = details: for % of positive cells, Cortex astroglia: astroglia (GFAP); for % of positive cells, Cortex neurons: neurons (Neun)
Procedure: Neuronal and glial counterstaining: In FIGS. 27A-27C, brain tissue from drug-injected mice was counterstained to determine if our nanoconjugates are taken up by neurons or glia. Cryosections ([…]) were air-dried for 10 min, fixed with 2% paraformaldehyde for 5 min, and then rinsed three times with PBS. […] The antibodies anti-Neun (Abcam, Cambridge, Mass., USA; AB104225) and anti-GFAP (Neuromics, Edina, Minn., USA; C1122102) were then diluted 1:500 in PBS-T and tissue sections incubated simultaneously with antibody solutions overnight at 4° C. in a humid chamber. Tissue sections were then washed five times with PBS-T and incubated in appropriate secondary antibody diluted 1:250 in PBS-T, for 2-4 h. After five washes in PBS at room temperature, sections were mounted between coverslips in Fluoromount-G with DAPI.
To this end, after systemic injection of our D-conjugates we counterstained brain tissue sections of hippocampus and cortex with anti-Neun to label neurons, and with anti-GFAP to label astroglia (FIGS. 27A-27C) and inspected the stained sections for red fluorescent particulates. […] Positive neurons and glia cells were counted after systemic injection of conjugates containing D1, D3, AC189 peptides, and of a control PBS (FIGS. 27A-27C).

brain cells = details: 0.274 μmol/kg
Procedure: For the particulate fluorescence analysis, images were converted to binary images, and then 5 ROIs 20*20 μm^2 were drawn per image. The area of each particle on the ROI was measured using the Image) particle analysis tool, where each particle was measured separately. Sizes were then summarized, sorted, and further analyzed using Minitab18 software (Minitab, Inc, State College, Pa., USA). Particulate areas observed between different conditions were compared via a one-way ANOVA combined with post-hoc Tukey tests to test differences between each experimental group.
A more reliable method to separate the particulate from the cellular fluorescence was reasoned to be by adjusting the levels of the image and converting it to a binary image, allowing the detection of only particulates eliminating interference of the diffused background. FIGS. 29A-29D illustrate intracellular fluorescence of mini nanodrugs.
Each ROI was converted to binary (black and white) image and the area and number of particles were quantified. 3 images per brain area were tested for 3 mice per group.
The particle content (example of ROI in FIG. 29A) then was measured. The average size of the particulate fluorescence is a proxy to estimate the intracellular load of fluorescent nanoconjugates following their injections. An example of such an analysis is shown in FIG. 29A: the yellow squares indicate regions of interest that were used to quantify particulate fluorescence. FIGS. 29B-29C summarize the average size of the intracellular fluorescence particles in the cortex ([…]), midbrain (FIG. 29C), and the hippocampus (FIG. 29C).

brain parenchyma = details: cortex; 0.274 μmol/Kg
Procedure: To determine how nanoconjugate-associated fluorescence relates to the anatomy of the vasculature, the distance of each analyzed ROI was manually measured from the nearest blood vessel wall (using line tool in FIJI). For tumor bearing mice, 5 images per tumor tissue and 5 per brain tissue were analyzed for each mouse. Intensity values were then plotted against the location of the blood vessel wall and summarized in scatterplots (e.g., FIG. 14B).
Drug concentrations are listed with regard to total nanoconjugate content systemically injected. […] Referring to FIG. 14B, fluorescence measurements were obtained from 10 μm^2-sized regions of interest (ROI) that were randomly overlaid on regions devoid of vasculature shown as yellow squares on photograph 1 of FIG. 14A. Intensity measurements and positions were then obtained for each ROI and plotted against the location of the nearest blood vessel wall. FIG. 14C is set of charts: chart 1—Cortex; chart 2—Midbrain and chart 3 Hippocampus, illustrating average nanoconjugate fluorescence in the brain parenchyma measured following injections at four different drug concentrations. In this figure, fluorescence is shown as relative fluorescence, which is the measured nanoconjugate fluorescence after subtraction of autofluorescence imaged from PBS injected animals using similar acquisition settings.
FIG. 14B explores this relationship in a plot from all of the measurements (for each condition: 4 mice, 3-4 sections with 20 random measurements each). All fluorescence intensity measurements were conducted with 10 μm^2-sized regions of interest placed outside of tomato-lectin stained blood vessels (ROI as in Photograph 1 of FIG. 14A); the positions of these ROIs were then measured against the location of the nearest blood vessel wall to produce the scatterplot in FIG. 14B.
The resulting data were used as a metric to examine how well the mini nanodrug was able to travel from the vessels into the surrounding parenchyma and encounter brain cells. […] Nanoconjugate diffused fluorescence intensity vs. ‘distance from vasculature’ measurements in brain parenchyma of mice injected with nanoconjugates at a dose of 0.274 μmol/Kg. Fluorescence measurements were obtained from […] regions of interest (ROI) that were randomly overlaid on regions devoid of vasculature (shown by yellow squares in FIG. 22A). Intensity measurements and positions were then obtained for each ROI and plotted against the location of the nearest blood vessel wall.

neurons = details: 0.274 μmol/Kg, vs PBS
[3] = biological target: low density lipoprotein receptor-related protein-1 (LRP-1) (mouse (endogenous receptor of the injected BALB/C mice)) (UniProt Q91ZX7); test: cell-based or functional assay
Sequence of low density lipoprotein receptor-related protein-1 (LRP-1) (mouse (endogenous receptor of the injected BALB/C mice)) (Q91ZX7 20-4545): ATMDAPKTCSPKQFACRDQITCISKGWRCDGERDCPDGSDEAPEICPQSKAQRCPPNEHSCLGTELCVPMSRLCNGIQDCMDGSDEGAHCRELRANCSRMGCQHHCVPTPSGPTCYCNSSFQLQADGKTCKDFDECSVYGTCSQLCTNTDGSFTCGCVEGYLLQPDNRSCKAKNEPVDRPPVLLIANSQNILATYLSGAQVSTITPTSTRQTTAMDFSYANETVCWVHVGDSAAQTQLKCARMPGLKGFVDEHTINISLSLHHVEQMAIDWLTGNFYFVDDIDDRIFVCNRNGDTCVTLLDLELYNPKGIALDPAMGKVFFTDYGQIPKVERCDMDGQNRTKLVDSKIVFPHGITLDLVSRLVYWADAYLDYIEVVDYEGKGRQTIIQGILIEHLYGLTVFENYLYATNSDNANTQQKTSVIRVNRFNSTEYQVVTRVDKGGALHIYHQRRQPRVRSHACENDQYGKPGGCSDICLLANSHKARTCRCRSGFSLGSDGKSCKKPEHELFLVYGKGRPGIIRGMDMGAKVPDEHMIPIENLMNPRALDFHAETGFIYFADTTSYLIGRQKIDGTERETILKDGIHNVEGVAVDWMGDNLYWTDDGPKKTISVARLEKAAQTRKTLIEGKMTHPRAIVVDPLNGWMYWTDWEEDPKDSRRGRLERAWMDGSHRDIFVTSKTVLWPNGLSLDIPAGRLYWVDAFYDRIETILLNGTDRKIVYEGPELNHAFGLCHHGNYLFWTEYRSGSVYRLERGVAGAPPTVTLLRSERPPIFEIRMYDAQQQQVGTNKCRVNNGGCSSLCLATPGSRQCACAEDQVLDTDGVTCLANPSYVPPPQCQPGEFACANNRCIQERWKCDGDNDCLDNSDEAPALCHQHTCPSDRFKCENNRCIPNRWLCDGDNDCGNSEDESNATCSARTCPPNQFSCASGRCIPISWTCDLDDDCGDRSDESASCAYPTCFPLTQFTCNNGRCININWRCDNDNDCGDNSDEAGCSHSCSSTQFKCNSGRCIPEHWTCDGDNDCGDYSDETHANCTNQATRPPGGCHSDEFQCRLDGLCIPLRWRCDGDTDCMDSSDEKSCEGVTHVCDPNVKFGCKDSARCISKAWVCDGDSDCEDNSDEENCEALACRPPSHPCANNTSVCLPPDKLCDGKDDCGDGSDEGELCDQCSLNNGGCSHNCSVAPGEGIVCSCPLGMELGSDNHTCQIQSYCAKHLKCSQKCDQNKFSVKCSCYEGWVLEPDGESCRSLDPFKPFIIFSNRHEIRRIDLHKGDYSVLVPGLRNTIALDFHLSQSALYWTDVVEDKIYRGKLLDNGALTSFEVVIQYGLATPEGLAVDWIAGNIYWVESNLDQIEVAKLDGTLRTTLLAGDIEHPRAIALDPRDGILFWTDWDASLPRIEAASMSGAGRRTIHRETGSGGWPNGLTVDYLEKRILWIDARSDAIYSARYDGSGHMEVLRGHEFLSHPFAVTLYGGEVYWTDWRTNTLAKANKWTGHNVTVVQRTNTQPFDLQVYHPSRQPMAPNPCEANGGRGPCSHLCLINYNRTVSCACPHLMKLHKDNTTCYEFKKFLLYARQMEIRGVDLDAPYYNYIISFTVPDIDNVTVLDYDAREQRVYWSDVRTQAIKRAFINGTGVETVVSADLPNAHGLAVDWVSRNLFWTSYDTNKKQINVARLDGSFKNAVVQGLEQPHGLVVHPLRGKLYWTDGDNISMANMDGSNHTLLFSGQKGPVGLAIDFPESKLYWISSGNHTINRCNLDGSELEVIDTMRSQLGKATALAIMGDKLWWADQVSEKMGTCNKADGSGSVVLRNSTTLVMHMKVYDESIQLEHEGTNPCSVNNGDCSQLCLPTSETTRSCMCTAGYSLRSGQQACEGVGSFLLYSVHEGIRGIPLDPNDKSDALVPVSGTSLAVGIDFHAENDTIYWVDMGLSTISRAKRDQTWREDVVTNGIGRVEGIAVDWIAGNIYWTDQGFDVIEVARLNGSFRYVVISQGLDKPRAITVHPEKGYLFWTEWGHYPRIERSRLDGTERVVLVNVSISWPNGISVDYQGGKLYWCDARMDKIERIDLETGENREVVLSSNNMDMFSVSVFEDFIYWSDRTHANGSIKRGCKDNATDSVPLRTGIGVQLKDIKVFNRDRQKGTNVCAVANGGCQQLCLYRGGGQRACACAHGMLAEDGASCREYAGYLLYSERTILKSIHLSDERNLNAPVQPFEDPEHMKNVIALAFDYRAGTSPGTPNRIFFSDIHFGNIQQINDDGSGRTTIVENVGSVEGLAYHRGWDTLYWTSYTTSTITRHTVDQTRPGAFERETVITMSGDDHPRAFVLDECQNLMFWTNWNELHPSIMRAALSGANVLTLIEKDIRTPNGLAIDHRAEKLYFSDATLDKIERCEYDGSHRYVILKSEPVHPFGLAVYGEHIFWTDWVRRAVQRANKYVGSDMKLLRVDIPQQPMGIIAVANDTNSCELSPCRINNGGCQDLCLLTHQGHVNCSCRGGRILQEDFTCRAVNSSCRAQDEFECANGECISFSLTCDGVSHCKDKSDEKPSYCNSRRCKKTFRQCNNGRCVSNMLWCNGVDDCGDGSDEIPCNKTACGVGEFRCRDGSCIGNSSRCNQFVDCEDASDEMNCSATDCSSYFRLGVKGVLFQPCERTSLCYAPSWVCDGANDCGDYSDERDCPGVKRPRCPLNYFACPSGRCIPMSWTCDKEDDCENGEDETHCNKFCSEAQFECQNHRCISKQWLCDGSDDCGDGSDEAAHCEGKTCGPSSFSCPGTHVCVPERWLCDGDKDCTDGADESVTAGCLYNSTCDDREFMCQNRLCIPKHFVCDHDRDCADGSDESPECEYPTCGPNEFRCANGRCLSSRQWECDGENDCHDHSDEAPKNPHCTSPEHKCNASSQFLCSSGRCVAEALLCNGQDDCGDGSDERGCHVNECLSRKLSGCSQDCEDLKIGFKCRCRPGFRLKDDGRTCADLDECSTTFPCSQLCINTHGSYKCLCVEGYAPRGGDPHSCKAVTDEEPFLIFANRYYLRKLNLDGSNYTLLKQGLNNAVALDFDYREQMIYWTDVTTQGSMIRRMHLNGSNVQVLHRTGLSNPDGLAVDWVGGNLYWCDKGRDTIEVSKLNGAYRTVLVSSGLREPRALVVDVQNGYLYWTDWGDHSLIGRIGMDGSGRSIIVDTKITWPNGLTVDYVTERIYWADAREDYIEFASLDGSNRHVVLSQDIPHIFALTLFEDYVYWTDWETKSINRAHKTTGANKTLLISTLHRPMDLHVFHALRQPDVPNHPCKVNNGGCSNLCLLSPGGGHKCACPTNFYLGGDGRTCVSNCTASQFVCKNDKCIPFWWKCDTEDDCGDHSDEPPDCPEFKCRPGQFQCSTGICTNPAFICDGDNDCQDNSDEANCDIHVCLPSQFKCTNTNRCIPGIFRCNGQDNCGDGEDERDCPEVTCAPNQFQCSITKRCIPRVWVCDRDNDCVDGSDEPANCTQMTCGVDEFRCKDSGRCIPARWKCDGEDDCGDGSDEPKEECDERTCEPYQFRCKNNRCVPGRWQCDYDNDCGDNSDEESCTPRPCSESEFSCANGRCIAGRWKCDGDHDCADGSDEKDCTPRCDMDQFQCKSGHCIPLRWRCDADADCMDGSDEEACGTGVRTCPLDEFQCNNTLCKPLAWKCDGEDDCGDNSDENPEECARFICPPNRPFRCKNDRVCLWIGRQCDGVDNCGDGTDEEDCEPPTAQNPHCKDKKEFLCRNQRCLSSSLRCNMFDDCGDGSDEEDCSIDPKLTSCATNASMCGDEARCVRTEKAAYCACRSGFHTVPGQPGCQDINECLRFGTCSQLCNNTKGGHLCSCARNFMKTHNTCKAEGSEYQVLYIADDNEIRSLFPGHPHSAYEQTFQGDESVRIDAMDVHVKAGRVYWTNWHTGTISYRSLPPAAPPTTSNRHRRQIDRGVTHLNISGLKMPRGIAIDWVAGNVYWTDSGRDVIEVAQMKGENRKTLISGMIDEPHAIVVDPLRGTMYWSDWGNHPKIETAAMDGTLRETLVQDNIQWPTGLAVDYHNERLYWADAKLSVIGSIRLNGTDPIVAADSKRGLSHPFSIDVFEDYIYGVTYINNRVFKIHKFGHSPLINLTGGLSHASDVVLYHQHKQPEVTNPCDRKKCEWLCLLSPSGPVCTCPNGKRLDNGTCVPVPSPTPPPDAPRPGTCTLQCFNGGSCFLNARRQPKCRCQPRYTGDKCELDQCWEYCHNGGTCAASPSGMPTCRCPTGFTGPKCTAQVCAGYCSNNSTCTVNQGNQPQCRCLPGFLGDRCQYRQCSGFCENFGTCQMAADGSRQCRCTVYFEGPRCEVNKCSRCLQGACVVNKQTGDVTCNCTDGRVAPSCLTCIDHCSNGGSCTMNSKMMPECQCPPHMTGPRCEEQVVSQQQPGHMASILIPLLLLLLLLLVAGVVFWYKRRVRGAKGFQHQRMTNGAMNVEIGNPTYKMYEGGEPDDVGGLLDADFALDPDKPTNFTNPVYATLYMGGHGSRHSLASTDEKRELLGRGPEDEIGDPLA

[4] = injected dose 8X (0.55 μmol/Kg)

## PMLA/LLL/AP2/Miniap4/rhodamine [P/LLL/AP2/M4]
[1]
  ζ potential: −5.5 mV

## PMLA/LLL/AP2/rhodamine
Amyloid β (Aβ) plaques
  Percentage of total plaques labeled by the reagents: 1.23%

## PMLA/LLL/B6/rhodamine
Amyloid β (Aβ) plaques
  Percentage of total plaques labeled by the reagents: 3.3%

## PMLA/LLL/B6/rhodamine (peptide 1 CGHKAKGPRK; peptide 2 Leu-Leu-Leu; also: conjugated to polymalic acid (PMLA), rhodamine label) [P/LLL/B6]
Aβ plaque; [4]
  Percentage of total plaques labeled by the reagents: 3.3%
Brain (other hemisphere); dose 1X
  Brain (other hemisphere) fluorescence: 1.2
Brain (other hemisphere); dose 4X
  Brain (other hemisphere) fluorescence: 6.8
[2]
  BBB permeation efficacy in AD brain (in words): A decrease was not observed
[1]
  ζ potential: −6.1 mV
Glioblastoma GL261
  dose-dependent change of tumor fluorescence between 1× and 4×: 23 fold

## PMLA/LLL/D1/rhodamine (peptide 1 QSHYRHISPAQVC; peptide 2 Leu-Leu-Leu; not fully specified) [P/LLL/D1]
Neurons and astroglia
  #Labeled/#total counted cells, Cortex astroglia: [5/40]
  % of positive cells, Cortex astroglia: 12.5%
  #Labeled/#total counted cells, Cortex neurons: [119/141]
  % of positive cells, Cortex neurons: 84.4%
  #Labeled/#total counted cells, Hippocampus astroglia: [4/57]
  % of positive cells, Hippocampus astroglia: 7.0%
  #Labeled/#total counted cells, Hippocampus neurons: [286/433]
  % of positive cells, Hippocampus neurons: 66.0%
Aβ plaque; [4]
  Percentage of total plaques labeled by the reagents: 0%
Brain (other hemisphere); dose 4X
  Brain (other hemisphere) fluorescence: 5.3
Brain cells
  increase of particle diameter in comparison with PBS: 2.5 fold
Brain parenchyma
  cortex Y intercepts of fluorescence vs distance curves (exponential fits): 21.6
neurons
  average fluorescence per neuron nucleus (in words): significantly higher than for PBS
Glioblastoma GL261
  Tumor fluorescence: 86.6
  ratio Tumor/Brain: 16.4

## PMLA/LLL/D3/rhodamine (peptide 1 RPRTRLHTHRNRC; peptide 2 Leu-Leu-Leu; not fully specified (some residues)) [P/LLL/D3]
Neurons and astroglia
  #Labeled/#total counted cells, Cortex astroglia: [7/46]
  % of positive cells, Cortex astroglia: 15.2%
  #Labeled/#total counted cells, Cortex neurons: [286/300]
  % of positive cells, Cortex neurons: 95.3%
  #Labeled/#total counted cells, Hippocampus astroglia: [14/47]
  % of positive cells, Hippocampus astroglia: 29.8%
  #Labeled/#total counted cells, Hippocampus neurons: [894/967]
  % of positive cells, Hippocampus neurons: 92.45%
Aβ plaque; injected dose 2X
  Percentage of total plaques labeled by the reagents: 0% all in a single box
Aβ plaque; injected dose 4X
  Percentage of total plaques labeled by the reagents: 0%
Aβ plaque; injected dose 6X
  Percentage of total plaques labeled by the reagents: 0%
Aβ plaque; [4]
  Percentage of total plaques labeled by the reagents: 21.1%
Brain (other hemisphere); dose 4X
  Brain (other hemisphere) fluorescence: 7.8
Brain cells
  increase of particle diameter in comparison with PBS: 2.5 fold
Brain parenchyma
  cortex Y intercepts of fluorescence vs distance curves (exponential fits): 21.1
neurons
  average fluorescence per neuron nucleus (in words): significantly higher than for PBS
Glioblastoma GL261
  Tumor fluorescence: 92.6
  ratio Tumor/Brain: 11.9

## PMLA/LLL/M4/rhodamine (peptide 1 KAPETALD; peptide 2 Leu-Leu-Leu; not fully specified) [P/LLL/M4]
Aβ plaque; [4]
  Percentage of total plaques labeled by the reagents: 0%
Brain (other hemisphere); dose 4X
  Brain (other hemisphere) fluorescence: 3.8
[1]
  ζ potential: −10.4 mV
Glioblastoma GL261
  Tumor fluorescence: 86.2
  ratio Tumor/Brain: 22.8

## PMLA/LLL/rhodamine
Amyloid β (Aβ) plaques
  Percentage of total plaques labeled by the reagents: 4.5%

## PMLA/LLL/rhodamine (Leu-Leu-Leu; also: conjugated to PMLA with rhodamine, link not given here) [P/LLL, polymalic acid with tri-leucine (40%) and rhodamine]
Aβ plaque; [4]
  Percentage of total plaques labeled by the reagents: 4.5%

## PMLA/M4/rhodamine (KAPETALD; not fully specified) [P/M4]
[1]
  ζ potential: −14.6 mV

B1: PMLA/LLL/D1/rhodamine (peptide)
peptide 1: [dQ][dS][dH][dY][dR][dH][dI][dS][dP][dA][dQ][dV]C
peptide 2: Leu-Leu-Leu
modifications: not fully specified (some residues, N-terminus); also: LLL amide-linked to PMLA carboxylates
[3]
  P/LLL/D1/rh fluorescence intensity in the brain parenchyma (BBB crossing) on co-injection of a 70-fold molar excess of AP2: 54.5%
  P/LLL/D1/rh fluorescence intensity in the parenchyma (transcytosis) with 21 µmol/kg free AP2: 50%
